For experiment [1], the target named is T1, 人4-1BB on CHO-K1 cells (CHO-h4-1BB) (human, UniProt Q07011 24-255).
T1 construct: whole, on cells; also called 高表达人4-1BB的CHO-K1细胞株
The experiment in a line: FACS on CHO-h4-1BB cells, antibody 20 to 0.027 ug/ml.

For experiment [2], the target named is T2, 人4-1BB (h4-1BB) antigen protein, coated on ELISA plates (human, UniProt Q07011 24-186).
T2 construct: Soluble antigen for plate coating; also called 人抗原4-1BB; 抗原人H4-1BB蛋白
Put plainly: ELISA, antigen coated at 1 ug/ml, antibody 1000 to 0.24 ng/ml. Background: ELISA stands for enzyme-linked immunosorbent assay.

T2 sequence (Q07011 24-186 limits assumed): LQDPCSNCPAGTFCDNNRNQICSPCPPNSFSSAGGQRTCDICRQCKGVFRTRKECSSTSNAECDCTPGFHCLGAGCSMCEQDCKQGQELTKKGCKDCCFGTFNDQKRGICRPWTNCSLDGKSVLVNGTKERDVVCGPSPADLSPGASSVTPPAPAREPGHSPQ
T1 sequence (Q07011 24-255): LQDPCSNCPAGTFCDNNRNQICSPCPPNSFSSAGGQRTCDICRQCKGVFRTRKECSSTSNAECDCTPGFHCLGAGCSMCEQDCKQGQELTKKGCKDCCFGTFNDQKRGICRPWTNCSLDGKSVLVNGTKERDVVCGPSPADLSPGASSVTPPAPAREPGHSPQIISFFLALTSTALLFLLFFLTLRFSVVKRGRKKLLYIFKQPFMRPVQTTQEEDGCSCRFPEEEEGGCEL

B1: 单克隆抗体HKB6 (抗人4-1BB抗体) (antibody, mouse IgG1, kappa, V domains shown)
VH: QVQLKESGPGLVAPSQSLSITCTVSGFSLTTYDISWIRQPPGKGLEWLGVIWTGGGTNYNSTFMSRLSINKDNSKSQVFLKMNSLQTDDTAIYYCVRVDYWGQGTSVTVSS
VL: DVVMTQTPLSLPVSLGDQASISCRSSQSLVHSNGNTYLHWFLQKPGQSPKLLIYKVSNRFPGVPDRFSGSGSGTDFTLKISRVEAEDLGVYFCSQNTHVPWTFGGGTKLEIKR
notes: Whole antibody from a mouse hybridoma, purified on Protein G; also called HKB6单克隆抗体
B1: the binding result in experiment [1] and in experiment [2] was “binds” each time.

(Values after CN111320691A (CHENG LIANSHENG; LIU JING, dated 2020).)
